Values of other authors as cited in publication doi:10.1101/2025.05.26.656075.

Molecular target: neonatal Fc receptor (FcRn), biotinylated (UniProt P55899+P61769)
Experiment: not stated
Conditions: cited from earlier work

| Substance | KD (pH 6.0) | KD (pH low pH (number not given)) | KD (pH neutral pH (number not given)) |
| --- | --- | --- | --- |
| MFc4 (IgG4 monomeric Fc of Shan et al.) L351F;S354E;T366R;P395K;F405R;Y407E;L428M;L432C;H433S;N434Y;Y436L;T437C;delQ438 (as printed) | 5 nM |  |  |
| native dimeric human IgG1 / IgG1 Fc (literature values) | 2,140 nM | 1,377 nM | ∼88,000 nM |
